Biological target: T1, GFP-MAL^TIR fusion protein (EGFP residues 3-239; MAL residues 79-221) (UniProt P58753 79-221)
T1 construct: MAL (MyD88 adaptor-like/TIRAP), TIR domain, residues 79-221; Printed order of the fusion: EGFP residues 3-239, GSGGS linker, MAL residues 79-221, in pMCSG7; source: E. coli BL21 (DE3), purified (HisTrap FF, Superdex 75)
Assay: crystal growth assay (DIC and GFP fluorescence microscopy); GFP-MAL^TIR-MyD88^TIR or MAL^TIR-MyD88^TIR seeds washed three times, diluted and mixed with MyD88^TIR (95 µM); 10 mM HEPES pH 7.5, 150 mM NaCl, 30 °C
Conditions: both partners purified

T1 sequence (P58753 79-221): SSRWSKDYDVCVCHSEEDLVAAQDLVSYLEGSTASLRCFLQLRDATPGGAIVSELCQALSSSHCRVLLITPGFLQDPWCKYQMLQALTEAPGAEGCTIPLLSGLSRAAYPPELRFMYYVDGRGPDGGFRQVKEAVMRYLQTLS

B1: MyD88 TIR domain (MyD88^TIR), residues 155-296 (domain or fragment, human, UniProt Q99836 155-296, looked up)
chain: GHMPERFDAFICYCPSDIQFVQEMIRQLEQTNYRLKLCVSDRDVLPGTCVWSIASELIEKRCRRMVVVVSDDYLQSKECDFQTKFALSLSPGAHQKRLIPIKYKAMKKEFPSILRFITVCDYTNPCTKSWFWTRLAKALSLP
notes: MyD88 (myeloid differentiation primary response gene 88), TIR domain, residues 155-296 in pET28b; Forms open-ended two-stranded higher-order assemblies in the MAL-induced microcrystals; source: E. coli BL21 (DE3), purified (HisTrap FF, Superdex 75)
- binding result: binds

From publication PMC8110528, “MyD88 TIR domain higher-order assembly interactions revealed by microcrystal electron diffraction and serial femtosecond crystallography” (Nature Communications, 2021)
